Data: paper PMC6423188, “HYNIC and DOMA conjugated radiolabeled bombesin analogs as receptor-targeted probes for scintigraphic detection of breast tumor” (EJNMMI Research, 2019)

Legend:
physchem = format: physicochemical; settings: pH 7.4
Method: Lipophilicity of the HPLC-purified radiopeptide analogs was determined through octanol/water partition coefficients, determined at pH 7.4 by measuring the distribution of the HPLC purified radiolabeled peptides in 1-octanol and PBS. Then, 50 μL HPLC purified ^99mTc-BN1/^99mTc-BN2/^99mTc-BN3/^99mTc-BN4/^99mTc-BNS with 100 μCi of radiolabeled compound in PBS was added to a to a centrifuge tube containing 1 mL n-octanol and 1 mL PBS (0.025 M, pH 7.4). The tube was vortexed at room temperature for 2 min and they are centrifuged at 5000 rpm for 5 min to ensure complete separation of layers. Further, 100 μL of each phase was transferred into a separate pre-weighed vial and measured in the well γ-counter. The ratio of octanol layer counts to aqueous layer counts was expressed as the distribution coefficient (D, the appropriate descriptor for ionizable compounds) and logD was used for determination of lipophilicity. Counts per unit weight of the sample were calculated, and logD value as calculated as follows:
log10D = log10 [(cpm in octanol – cpm in background) / (cpm in buffer – cpm in background)]

in vitro = in vitro ADME; settings: rat
Method: An aliquot (100 μL) of ^99mTc-BN1/^99mTc-BN2/^99mTc-BN3/^99mTc-BN4/^99mTc-BNS was added to 1 mL of freshly collected rat serum in centrifuge tube. The mixture was then incubated at 37 °C for 1 h; the serum protein was precipitated by adding 1 mL trichloroacetic acid (10%, V/V). The supernatant and precipitate were separated by centrifugation at 3000 rpm for 5 min. Radioactivities of both the phases were measured separately. The above experimental procedure was repeated three times. The percentage of protein binding was determined as: Plasma protein binding % = (precipitate counts (CPM) / [precipitate counts (CPM) + plasma counts (CPM)]) × 100%.

[1] = test system: MDA-MB-231 tumor-bearing mice; assay: In vivo biodistribution; parameters: species or system mouse; settings: for Tumor uptake: MDA-MB-231 tumor; for Tumor uptake / Blood uptake / Heart uptake / Intestine uptake / Kidney uptake / Liver uptake / Lung uptake / Muscle uptake / Pancreas uptake / Spleen uptake / Stomach uptake / Urine + urinary bladder uptake: mean ± SD, n = 3
Method: All animal experiments were done according to the CSIR-IICB Animal Ethics Committee’s rules and regulation. Forty-eight hours before tumor cell implantation, an immunosuppressive drug (cyclosporine-A) was given intraperitoneal (i.p) at a concentration of 30 mg/kg/day. After that, MDA-MB-231 cells (5 × 10^6) 0.2 mL were implanted subcutaneously into the left flanks of the hind leg of BALB/c mice. Thereafter, the same dose of cyclosporine was given i.p. daily up to 2 weeks. Two weeks after inoculation of the tumor cells, when tumors reached ~ 0.5 cm in mean diameter, the tumor-bearing mice were used for biodistribution and imaging studies. Animals were monitored daily and their weights were recorded. Control group of mice received only 0.9 wt% saline. After cell implantation, the growth rate of the breast tumor followed a satisfactory pattern of spheroid shape and tumors are palpable within 2 to 4 weeks. MDA-MB-231 cell implanted mice tumor models were used for biodistribution and planar imaging studies of these radiolabeled new bombesin analogs.
In tissue biodistribution studies, tumor-bearing animals were divided into four groups and well hydrated for 1 h by intraperitoneal administration of saline (0.9%, 2 mL). Three animals per groups were used for biodistribution studies. After that, the radiolabeled new bombesin analogs (^99mTc-BN) were injected intravenously in each animal of each group consequently through the tail vein [24–27]. After 5, 30, 60, and 120 min intravenous administrations of radiolabeled analogs, the animals were sacrificed; blood, heart, lung, liver, kidney, stomach, intestine, spleen, pancreas, brain, muscle, and tumor were excised, weighed, and counted for radioactivity. The organ uptake was calculated as a percentage of the injected activity per gram of wet tissue (%IA/g). In order to evaluate whether binding of bombesin analogs to MDA-MB-231 cells in vivo is specific; blocking studies with ^99mTc-labeled bombesin analogs in tumor-bearing mice were carried out. Groups of three animals were injected 0.03 nmol of ^99mTc-labeled BN analogs (2 MBq) with 25 nmol of non-radiolabeled BN peptide. After 60 min and 120 min, mice were sacrificed and the organs were collected. Each organ was weighed and counted in a gamma counter along with activity standard and percentage of injected activity per gram (%IA/g) of tissue was calculated for each type of tissues. Counts were corrected for background radiation and physical decay of the radioactivity. The uptake was expressed in the percentage of injected activity per gram of each organ (%IA/g). Data were analyzed statistically by the t test, with the level of significance set at P < 0.05.

[2] = 60 min p.i., blocked with excess non-radiolabeled BN peptide

^99mTc-HYNIC-Asp-Asn-[Lys^11CHAla^13Nle^14]-BN(7-14)NH2 [99mTc-BN3]
logD (physchem): − 2.21 ± 0.13
Percentage of plasma protein binding (in vitro): 26.00%
tumor/blood ratio ([1]; 5 min p.i.): 2.37
tumor/kidney ratio ([1]; 5 min p.i.): 0.64
tumor/muscle ratio ([1]; 5 min p.i.): 2.56
Tumor uptake ([1]; 5 min p.i., i.v.): 1.28 ± 0.01 %IA/g
Blood uptake ([1]; 5 min p.i., i.v.): 0.54 ± 0.01 %IA/g
Heart uptake ([1]; 5 min p.i., i.v.): 0.91 ± 0.03 %IA/g
Intestine uptake ([1]; 5 min p.i., i.v.): 1.21 ± 0.06 %IA/g
Kidney uptake ([1]; 5 min p.i., i.v.): 1.97 ± 0.11 %IA/g
Liver uptake ([1]; 5 min p.i., i.v.): 0.44 ± 0.03 %IA/g
Lung uptake ([1]; 5 min p.i., i.v.): 0.87 ± 0.14 %IA/g
Muscle uptake ([1]; 5 min p.i., i.v.): 0.50 ± 0.01 %IA/g
Pancreas uptake ([1]; 5 min p.i., i.v.): 2.78 ± 0.11 %IA/g
Spleen uptake ([1]; 5 min p.i., i.v.): 0.54 ± 0.04 %IA/g
Stomach uptake ([1]; 5 min p.i., i.v.): 0.52 ± 0.02 %IA/g
Urine + urinary bladder uptake ([1]; 5 min p.i., i.v.): 0.61 ± 0.04 %IA/g
tumor/blood ratio ([1]; 30 min p.i.): 3.47
tumor/kidney ratio ([1]; 30 min p.i.): 0.76
tumor/muscle ratio ([1]; 30 min p.i.): 9.83
Tumor uptake ([1]; 30 min p.i., i.v.): 2.95 ± 0.01 %IA/g
Blood uptake ([1]; 30 min p.i., i.v.): 0.85 ± 0.01 %IA/g
Heart uptake ([1]; 30 min p.i., i.v.): 0.77 ± 0.02 %IA/g
Intestine uptake ([1]; 30 min p.i., i.v.): 1.46 ± 0.05 %IA/g
Kidney uptake ([1]; 30 min p.i., i.v.): 3.88 ± 0.21 %IA/g
Liver uptake ([1]; 30 min p.i., i.v.): 0.23 ± 0.13 %IA/g
Lung uptake ([1]; 30 min p.i., i.v.): 0.62 ± 0.03 %IA/g
Muscle uptake ([1]; 30 min p.i., i.v.): 0.30 ± 0.02 %IA/g
Pancreas uptake ([1]; 30 min p.i., i.v.): 3.59 ± 0.03 %IA/g
Spleen uptake ([1]; 30 min p.i., i.v.): 0.46 ± 0.01 %IA/g
Stomach uptake ([1]; 30 min p.i., i.v.): 0.74 ± 0.04 %IA/g
Urine + urinary bladder uptake ([1]; 30 min p.i., i.v.): 2.80 ± 0.01 %IA/g
tumor/blood ratio ([1]; 60 min p.i.): 5.71
tumor/kidney ratio ([1]; 60 min p.i.): 0.85
tumor/muscle ratio ([1]; 60 min p.i.): 10.38
Tumor uptake [1, 2]: 0.54 ± 0.20 %IA/g
Blood uptake [1, 2]: 0.30 ± 0.01 %IA/g
Heart uptake [1, 2]: 0.29 ± 0.11 %IA/g
Intestine uptake [1, 2]: 1.36 ± 0.23 %IA/g
Kidney uptake [1, 2]: 3.18 ± 0.20 %IA/g
Liver uptake [1, 2]: 0.20 ± 0.03 %IA/g
Lung uptake [1, 2]: 0.52 ± 0.02 %IA/g
Muscle uptake [1, 2]: 0.16 ± 0.21 %IA/g
Pancreas uptake [1, 2]: 0.92 ± 0.02 %IA/g
Spleen uptake [1, 2]: 0.33 ± 0.03 %IA/g
Stomach uptake [1, 2]: 0.37 ± 0.10 %IA/g
Urine + urinary bladder uptake [1, 2]: 3.52 ± 0.07 %IA/g
Tumor uptake ([1]; 60 min p.i., i.v.): 2.70 ± 0.02 %IA/g
Blood uptake ([1]; 60 min p.i., i.v.): 0.47 ± 0.04 %IA/g
Heart uptake ([1]; 60 min p.i., i.v.): 0.35 ± 0.02 %IA/g
Intestine uptake ([1]; 60 min p.i., i.v.): 1.85 ± 0.21 %IA/g
Kidney uptake ([1]; 60 min p.i., i.v.): 3.17 ± 0.17 %IA/g
Liver uptake ([1]; 60 min p.i., i.v.): 0.18 ± 0.12 %IA/g
Lung uptake ([1]; 60 min p.i., i.v.): 0.50 ± 0.02 %IA/g
Muscle uptake ([1]; 60 min p.i., i.v.): 0.26 ± 0.03 %IA/g
Pancreas uptake ([1]; 60 min p.i., i.v.): 2.11 ± 0.06 %IA/g
Spleen uptake ([1]; 60 min p.i., i.v.): 0.30 ± 0.01 %IA/g
Stomach uptake ([1]; 60 min p.i., i.v.): 0.66 ± 0.02 %IA/g
Urine + urinary bladder uptake ([1]; 60 min p.i., i.v.): 3.75 ± 0.11 %IA/g
tumor/blood ratio ([1]; 120 min p.i.): 7.04
tumor/kidney ratio ([1]; 120 min p.i.): 1.20
tumor/muscle ratio ([1]; 120 min p.i.): 8.89
Tumor uptake ([1]; 120 min p.i., i.v.): 1.69 ± 0.03 %IA/g
Blood uptake ([1]; 120 min p.i., i.v.): 0.24 ± 0.01 %IA/g
Heart uptake ([1]; 120 min p.i., i.v.): 0.15 ± 0.04 %IA/g
Intestine uptake ([1]; 120 min p.i., i.v.): 0.70 ± 0.05 %IA/g
Kidney uptake ([1]; 120 min p.i., i.v.): 1.40 ± 0.13 %IA/g
Liver uptake ([1]; 120 min p.i., i.v.): 0.11 ± 0.03 %IA/g
Lung uptake ([1]; 120 min p.i., i.v.): 0.35 ± 0.11 %IA/g
Muscle uptake ([1]; 120 min p.i., i.v.): 0.19 ± 0.02 %IA/g
Pancreas uptake ([1]; 120 min p.i., i.v.): 1.22 ± 0.04 %IA/g
Spleen uptake ([1]; 120 min p.i., i.v.): 0.12 ± 0.02 %IA/g
Stomach uptake ([1]; 120 min p.i., i.v.): 0.25 ± 0.01 %IA/g
Urine + urinary bladder uptake ([1]; 120 min p.i., i.v.): 3.91 ± 0.22 %IA/g
